Laboratory results as given in the supplement of paper PMC10567573.

B1: CDC14A (parent)
chain: LWVQGDIFRSKLKNRPSSEGSINK
B2: CCDC70 (parent)
chain: FSFKVSRWMGLACFRSLAASSPSI

Variants of: B1
Assay: protein stability index of a GFP-peptide fusion (GPS, HEK-293T) (PSI 1-6); higher = more stable
Details: c terminus: a fixed tail appended
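Further: lentivirally expressed fusions sorted by FACS into six bins by GFP to DsRed ratio, PSI derived from sequencing read proportions per bin multiplied by bin number.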

Protein stability index: each site, then its substitutions
N23: D 2.8; Q 2.31; L 2.1; E 2.89; T 3.06; G 3.05; S 2.96; I 2.15; W 2.8; R 2.4; F 1.45; Y 1.91; K 2.69; A 2.08; M 2.15; C 2.17; H 2.65; P 3.06
I22: Q 2.71; R 3.2; V 2.81; P 2.63; T 3.39; Y 2.85; W 2.33; L 2.79; N 3.05; S 3.88; M 3.02
K24: H 2.06; Q 2.41; F 1.75; M 2.08; T 2.83; S 2.37; N 2.79; E 2.73; G 2.26; Y 1.73; V 1.63; L 1.91; P 2.46; C 1.93; W 2.47; A 2.31; D 2.79; I 1.8; R 2.52

Variants of: B2
Assay: as above
Details: c terminus: a fixed tail appended

Protein stability index, by site and new letter:
C13: T 1.63; S 2.66; F 3.96; I 2.56; D 2.05; H 2.36; P 1.82; V 2.52; L 3.57; W 2.35; Y 3.24; K 1.46; R 3.4; G 2.27
K4: V 3.11; C 3.35; N 2.51; H 2.73; R 2.22; W 4.77; A 2.38; M 2.34; D 3.56; E 1.92; S 3.25; L 3.31; I 3.39; G 2.99; P 1.65; T 2.38; Y 3.24
A18: T 2.82; V 2.58; S 2.69; L 2.9; Y 3.5; D 2.71; M 2.78; F 2.74; R 2.21; H 2.37; E 2.71; K 4.48; W 1.96
G10: Y 4.12; K 3.17; W 3.9; C 1.55; P 4.98; A 3.75; R 2.37; E 3.35; N 3.79; S 2.98; M 4.54; D 3.79; V 2.36; F 1.86
F3: L 4.25; E 2.21; C 2.74; R 3.02; N 2.5; D 1.63; W 1.82; H 1.87; K 1.39; I 2.92; P 2.57; T 1.83; S 2.6; V 1.38; A 3.33; Q 1.92
L11: D 2.84; G 3.16; I 3.88; T 3.12; N 2.65; Y 3.04; R 4.02; M 3.73; E 1.76; S 3.51; P 2.72; A 3.24; H 5.37; F 3.35
F14: A 3.51; W 1.7; P 3.6; K 1.93; N 2.56; T 1.31; V 3.5; D 2.84; Q 1.72; G 3.57; L 2; I 1.54; S 1.61; R 4.52; M 2.21
A12: Q 3.81; M 3.25; H 1.57; P 2.56; C 3.26; L 2; I 3.43; S 2.02; Y 2.87; R 1.49; V 1.98; D 2.87; F 2.57; K 3.62; E 2.75
S2: H 1.33; V 1.84; C 3.54; D 2.19; T 2.69; A 1.82; Y 2.62; I 3.26; F 3.87; Q 3.39; G 1.56; M 2.1; P 2.37; N 2.32; R 1.49; K 2.59
S16: N 3.94; H 3.13; C 2.56; Q 2.42; G 3.37; F 2.55; L 2.13; I 1.98; A 3.04; D 2.86; K 2.18; P 3.05; W 2.79; R 3.88; Y 3.27; E 4.34
A19: L 3.58; G 2.19; M 3.27; P 2.09; F 1.36; E 3.77; D 2.88; H 2.03; C 1.8; N 3.2
R15: A 3.76; M 3.86; Q 5.05; E 3.26; S 1.7; I 2.04; D 2.71; L 3.13; W 4.5; V 3.28; Y 2.87; H 3.52; T 2.79
S6: M 2.17; E 3.26; F 1.69; K 2.24; N 3.31; I 2.7; C 2.82; A 2.99; P 2.51; V 4.41; T 2.43; D 2.35; G 2.88; W 3.02; Q 3.43; R 2.09; L 2.29; Y 2.88
L17: T 2.3; N 2.73; K 2.45; V 2.84; Q 1.83; P 3.88; I 1.86; Y 2.69; R 2.19; A 1.7; S 1.87; H 2.29; M 2.77; G 3.62
V5: T 2.77; A 3.24; L 2.22; E 1.29; W 2.13; M 2.01; H 2; N 2.78; Y 2.98; R 3.55; F 2.74; C 2.92; D 1.73; Q 3.04; P 2.21; I 1.72; G 2.54; K 2.28
M9: F 2.95; D 4.03; Y 3.2; A 2.28; I 4.43; L 4.57; K 2.21; P 1.36; E 2.5; H 2.8; C 3.07; N 2.15
R7: E 3.4; V 3.67; H 3.25; S 2.14; K 2.3; D 2.9; F 2.69; M 2.33; A 2.22; I 4.23; W 3.02; Q 2.19; C 3.09; Y 2.52; N 2.53; G 1.65
F1: R 2.08; N 2.35; D 1.25; K 2.46; S 1.38; Q 2.12; L 4.16; P 2.2; Y 2.33; G 2.57; M 4.47; I 1.68; W 2.34; E 3.1; T 2.53; C 2.38; A 2.36
W8: F 4.12; P 2.4; M 1.77; C 2.07; T 2.58; H 2.82; S 2.08; K 2.29; A 1.12; V 3.21; Q 3.47; Y 3.02; I 2.9; E 1.29; L 3.27; R 1.81; D 1.76; G 3.55
